Target: T1, XRCC4 (residues 1-336) (human, UniProt Q13426 1-336)
T1 construct: XRCC4, human, residues 1-336; The copies value of 2 rests on the introduction's words (one XRCC4 homodimer and one Lig4 monomer in the active complex), not on a measurement made here; also called X4
Assay: differential scanning fluorimetry; Lig4 C-ter and XRCC4 equimolar at 5 uM in 20 mM HEPES pH 7.5, 100 mM KCl, 2 mM EDTA, 1 mM DTT, 66 mM NDSB-195, 10% glycerol, 10X SYPRO Orange; heated from 20 to 89 °C
Settings: both partners purified

T1 sequence (Q13426 whole entry, the tested form may be a part): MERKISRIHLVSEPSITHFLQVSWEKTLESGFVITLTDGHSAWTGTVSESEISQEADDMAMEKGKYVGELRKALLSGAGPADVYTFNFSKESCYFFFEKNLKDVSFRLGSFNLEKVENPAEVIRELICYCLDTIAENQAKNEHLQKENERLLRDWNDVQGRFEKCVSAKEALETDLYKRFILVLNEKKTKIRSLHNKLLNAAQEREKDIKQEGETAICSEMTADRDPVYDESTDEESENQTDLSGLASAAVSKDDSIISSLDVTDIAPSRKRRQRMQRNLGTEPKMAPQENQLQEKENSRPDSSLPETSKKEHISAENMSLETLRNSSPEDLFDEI

- binding result: binds
B1: WT Lig4 C-ter domain (654-911) (domain or fragment, human, UniProt P49917 654-911, looked up)
chain: KISNIFEDVEFCVMSGTDSQPKPDLENRIAEFGGYIVQNPGPDTYCVIAGSENIRVKNIILSNKHDVVKPAWLLECFKTKSFVPWQPRFMIHMCPSTKEHFAREYDCYGDSYFIDTDLNQLKEVFSGIKNSNEQTPEEMASLIADLEYRYSWDCSPLSMFRRHTVYLDSYAVINDLSTKNEGTRLAIKALELRFHGAKVVSCLAEGVSHVIIGEDHSRVADFKAFRRTFKRKFKILKESWVTDSIDKCELQEENQYLI
notes: DNA ligase IV (Lig4), human, C-terminal fragment with the two BRCT domains and the clamp domain, residues 654-911; also called Lig4 C-ter fragment; C-ter Lig4 protein; source: Escherichia coli BL21 (DE3), purified (HisTrap HP, HiTrap Q HP)

From paper PMC4786802, “Structure-Based Virtual Ligand Screening on the XRCC4/DNA Ligase IV Interface” (Scientific Reports, 2016)
